Test results taken from paper PMC9881146.

Key:
[1] = target: Cdc13_(OB234), purified, large tag removed (C. glabrata); test: AUC
[2] = target: OB1 ΔC-ter Q39A A40W (C. glabrata); test: AUC
[3] = target: OB1 ΔC-ter A40W (C. glabrata); test: AUC
[4] = target: Cdc13 OB1 domain (Strep-TEV-Strep-OB1, residues 1-176) (C. glabrata); test: AUC
[5] = target: Cdc13_(OB24) (H10-TEV-Cdc13_(OB24)) (C. glabrata); test: mass photometry
[6] = target: Cdc13_(OB24) (H10-TEV-Cdc13_(OB24)) (C. glabrata); test: AUC
[7] = target: Cdc13_(OB24) (H10-TEV-Cdc13_(OB24)) (C. glabrata); test: SEC
[8] = target: Cdc13 OB1 domain without its C-terminal tail (OB1 ΔC-ter) (C. glabrata); test: AUC
[9] = target: Cdc13 OB2 domain (Strep-TEV-Strep-OB2, residues 260-396) (C. glabrata); test: SEC
[10] = target: OB1 ΔC-ter Q39A (C. glabrata); test: AUC
[11] = target: OB1 ΔC-ter A40W D94A (C. glabrata); test: AUC
[12] = target: Cdc13_(OB23) (H10-TEV-Cdc13_(OB23)) (C. glabrata); test: mass photometry
[13] = target: Cdc13_(OB23) (H10-TEV-Cdc13_(OB23)) (C. glabrata); test: AUC
[14] = target: Cdc13_(OB23) (H10-TEV-Cdc13_(OB23)) (C. glabrata); test: SEC
Cdc13OB234 = target: T1, Cdc13OB234 (Candida glabrata, UniProt Q6FT40 260-753); test: fluorescence polarization
T1 sequence: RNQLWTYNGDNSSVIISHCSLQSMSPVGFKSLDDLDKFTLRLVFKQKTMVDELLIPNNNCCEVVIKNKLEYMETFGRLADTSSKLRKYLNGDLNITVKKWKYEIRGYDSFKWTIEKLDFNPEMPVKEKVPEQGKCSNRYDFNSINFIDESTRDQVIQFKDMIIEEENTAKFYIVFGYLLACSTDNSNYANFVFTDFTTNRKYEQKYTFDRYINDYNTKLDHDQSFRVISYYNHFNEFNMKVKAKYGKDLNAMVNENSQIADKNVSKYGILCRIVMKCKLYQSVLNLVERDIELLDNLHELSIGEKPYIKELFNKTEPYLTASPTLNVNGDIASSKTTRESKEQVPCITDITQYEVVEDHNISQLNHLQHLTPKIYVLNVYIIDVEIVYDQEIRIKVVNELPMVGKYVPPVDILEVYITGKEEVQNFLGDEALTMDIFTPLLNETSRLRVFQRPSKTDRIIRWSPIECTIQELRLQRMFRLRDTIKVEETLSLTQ

Cdc13OB34 = target: T2, Cdc13OB34 (Candida glabrata, UniProt Q6FT40 401-753); test: fluorescence polarization
T2 sequence: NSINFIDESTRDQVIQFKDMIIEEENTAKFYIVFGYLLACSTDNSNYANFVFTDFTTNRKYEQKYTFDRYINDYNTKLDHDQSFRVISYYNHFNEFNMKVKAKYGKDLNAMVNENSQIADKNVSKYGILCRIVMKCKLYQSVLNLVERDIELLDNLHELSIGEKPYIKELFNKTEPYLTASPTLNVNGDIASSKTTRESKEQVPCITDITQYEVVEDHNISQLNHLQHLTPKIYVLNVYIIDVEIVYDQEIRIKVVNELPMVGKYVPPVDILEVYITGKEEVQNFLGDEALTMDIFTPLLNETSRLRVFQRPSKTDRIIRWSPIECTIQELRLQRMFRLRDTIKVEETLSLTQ

Cdc13OB23 = target: T3, Cdc13OB23 (Candida glabrata, UniProt Q6FT40 260-593); test: fluorescence polarization
T3 sequence: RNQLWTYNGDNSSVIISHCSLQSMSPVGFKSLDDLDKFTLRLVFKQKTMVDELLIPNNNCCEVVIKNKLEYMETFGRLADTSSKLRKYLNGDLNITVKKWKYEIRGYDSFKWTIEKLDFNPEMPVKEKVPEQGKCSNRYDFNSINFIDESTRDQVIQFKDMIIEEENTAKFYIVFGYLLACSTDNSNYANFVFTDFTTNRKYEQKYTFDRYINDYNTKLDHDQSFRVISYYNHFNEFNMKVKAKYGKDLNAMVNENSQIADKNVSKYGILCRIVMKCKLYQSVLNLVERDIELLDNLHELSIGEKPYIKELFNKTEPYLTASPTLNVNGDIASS

OB3 = target: T4, OB3 (Candida glabrata, UniProt Q6FT40 401-593); test: EMSA
T4 sequence: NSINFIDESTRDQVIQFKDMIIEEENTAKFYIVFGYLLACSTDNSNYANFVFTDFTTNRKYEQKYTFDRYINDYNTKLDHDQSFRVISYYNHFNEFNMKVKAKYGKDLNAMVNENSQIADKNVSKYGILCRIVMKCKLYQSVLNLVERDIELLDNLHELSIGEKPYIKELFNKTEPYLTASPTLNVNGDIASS

Cdc13_(OB234), purified, large tag removed (domain or fragment)
stoichiometry N [1]: 2

OB1 ΔC-ter Q39A A40W (domain or fragment)
relative abundance of species 1 [2]: 97.8%
relative abundance of species 2 [2]: 2.2%

OB1 ΔC-ter A40W (domain or fragment)
relative abundance of species 1 [3]: 97.9%
relative abundance of species 2 [3]: 2.1%

Cdc13 OB1 domain (Strep-TEV-Strep-OB1, residues 1-176) (domain or fragment)
relative abundance of species 1 (monomer) [4]: 72%
relative abundance of species 2 [4]: 4%
relative abundance of species 3 [4]: 3%
relative abundance of species 4 [4]: 4.5%
relative abundance of species 5 [4]: 2%

Cdc13_(OB24) (H10-TEV-Cdc13_(OB24)) (domain or fragment)
stoichiometry N [5]: 2
stoichiometry N [6]: 2
stoichiometry N [7]: 2

Cdc13 OB1 domain without its C-terminal tail (OB1 ΔC-ter) (domain or fragment)
relative abundance of species 1 [8]: 95%
relative abundance of species 2 [8]: 4%
relative abundance of species 3 [8]: 1%

Cdc13 OB2 domain (Strep-TEV-Strep-OB2, residues 260-396) (domain or fragment)
stoichiometry N [9]: 2

OB1 ΔC-ter Q39A (domain or fragment)
relative abundance of species 1 [10]: 95.8%
relative abundance of species 2 [10]: 3.1%
relative abundance of species 3 [10]: 1.1%

OB1 ΔC-ter A40W D94A (domain or fragment)
relative abundance of species 1 [11]: 97%
relative abundance of species 2 [11]: 3%

Cdc13_(OB23) (H10-TEV-Cdc13_(OB23)) (domain or fragment)
stoichiometry N [12]: 2
stoichiometry N [13]: 2
stoichiometry N [14]: 2

TGTGGGGTCTGGGTGCTGTGGGGTCTGGGTGCTGTGGGGTCTGGGTGC (ssDNA) [6FAM-CgTelo]
Kd (Cdc13OB234): 13.5 ± 1.7 nM
Kd (Cdc13OB34): 299 ± 41 nM
Kd (Cdc13OB23): 28.5 ± 3.8 nM

TTTTTTTTTTTTTTTTTTTTTTTTTTTTTTTTTTTTTTTTTTTTTTTT (ssDNA) [polyT]
binding result (OB3): no binding
